Results from PMC6298664.

Assays:
[1] = biological target: Spermidine N-acetyltransferase (SpeG) from Escherichia coli (Escherichia coli str. K-12 substr. MG1655) (UniProt P0A951); experiment: SPR; SpeG (46 uM) amine-coupled; the surface exposed to 0.5 mM spermidine before the RcsB constructs were injected as analytes; 4 C; 10 mM HEPES pH 8.3, 100 mM sodium chloride; Reichert4SR; one-to-one model
[2] = biological target: Spermidine N-acetyltransferase (SpeG) from Escherichia coli (Escherichia coli str. K-12 substr. MG1655) (UniProt P0A951); experiment: SPR; SpeG (46 uM) amine-coupled to a carboxymethyl dextran chip; RcsB constructs as analytes; no spermidine; 4 C; 10 mM HEPES pH 8.3, 100 mM sodium chloride; Reichert SR7500DC; one-to-one model

Chain of UniProt P0A951 (P0A951 whole entry): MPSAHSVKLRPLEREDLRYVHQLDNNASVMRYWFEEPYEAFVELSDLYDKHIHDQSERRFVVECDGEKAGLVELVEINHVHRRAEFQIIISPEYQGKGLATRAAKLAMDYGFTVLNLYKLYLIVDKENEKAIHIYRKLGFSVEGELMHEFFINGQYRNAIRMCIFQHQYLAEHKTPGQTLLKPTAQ

“full-length RcsB from Escherichia coli (from UniProt P0DMC7 1-216) (natural protein)” gave a Kd [1] of 128 µM.
In the case of “C-terminal DNA binding domain of RcsB (residues 128-216) (from UniProt P0DMC7 128-216) (domain or fragment)”, the Kd [1] is reported as 281 µM and the Kd [2] is reported as 67 µM.
